# Measured values: the emibetuzumab library of Makowski et al. (2022)
# B1: VH:VL chains; a variant is named by its letters at X, in order (parent)
# chain 1: QVQLVQSGAEVKKPGASVKVSCKASGYTFTDYXMHWVRQAPGQGLEWMGXVNPNXXXTTYNQKFEGRVTMTTDTSTSTAYMELRSLRSDDTAVYYCARXNXLDXWGQGTTVTVSS
# chain 2: DIQMTQSPSSLSASVGDRVTITCSVSSSVSSIYLHWYQQKPGKAPKLLIYSTSNLASGVPSRFSGSGSGTDFTLTISSLQPEDFATYYCQVYSGYPLTFGGGTKVEIK
# Variants of: B1
# Experiment: yeast display scFab, FACS + sequencing
# Summary of the method: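 The non-specific binding call was based on sorted and sequenced yeast displaying a heavy-chain CDR mutant scFab library. Labelling used anti-Myc with biotinylated ovalbumin (260 μg/mL in PBSB, 3 h, room temperature) or soluble membrane proteins (130 μg/mL, 20 min on ice), and FACS collected the top 25% and bottom 10% of binders in two replicates. Positive meant present in ≥3 of 4 pooled positive samples and in no negatives, and negative meant the converse.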
row,Variant,non-specific binding call
1,AATTDSGD,no binding
2,AATTDSGV,no binding
3,AATTDSSS,no binding
4,AATTDSVD,no binding
5,VATTDSVD,no binding
6,SATTDSVD,no binding
7,FATTDSVD,no binding
8,DATTDSVD,no binding
9,YATTSFSF,no binding
10,AATTSFVV,no binding
11,FEAESYGV,binds
12,AEAGADVV,no binding
13,VEAGDAAA,no binding
14,VEAGDAAV,no binding
15,VEAGDAGD,no binding
16,VEAGDAGS,no binding
17,VEAGDALV,no binding
18,VEAGDAVA,no binding
19,DEAGDAVV,no binding
20,SEAGDAVV,no binding
21,AEAGDAVV,no binding
22,VEAGDDAA,no binding
23,VEAGDDAV,no binding

row,Variant,non-specific binding call
1,VEAGDDGA,no binding
2,FEAGDDGV,no binding
3,VEAGDDSA,no binding
4,VEAGDDVV,no binding
5,VEAGDDVY,no binding
6,VEAGDDWV,no binding
7,FEAGDSGA,no binding
8,VEAGDSLD,no binding
9,VEAGDSSA,no binding
10,VEAGDSSS,no binding
11,VEAGDSWV,no binding
12,DEAGGDGY,no binding
13,VEAGSDGV,no binding
14,YEAGTAVA,no binding
15,VEAGTAVA,no binding
16,DEAGTAVA,no binding
17,DEAKAAVD,binds
18,AEARAAGS chain 1 V37I,binds
19,FEARDYWD,binds
20,DEARGAGD,no binding
21,VEARGDGA,no binding
22,VEARGDWV,no binding
23,DEARNAGA,no binding

row,Variant,non-specific binding call
1,YEARNAGA,no binding
2,VEARNAGA,no binding
3,SEARNAGD,no binding
4,SEARNDGA,no binding
5,VEARNDWA chain 1 M81I,binds
6,SEARSAAV,no binding
7,SEARSAGV,no binding
8,SEARSALA,no binding
9,SEARSALD,no binding
10,SEARSALV,no binding
11,SEARSAVA,no binding
12,SEARSAVS,no binding
13,SEARSAVV,no binding
14,SEARSAVY,no binding
15,SEARSAWA,no binding
16,SEARSAWS,no binding
17,SEARSDAA,no binding
18,SEARSDAD,no binding
19,SEARSDAS,no binding
20,SEARSDAV,no binding
21,DEARSDGA,no binding
22,AEARSDGA,no binding
23,SEARSDGF,no binding

row,Variant,non-specific binding call
1,SEARSDGS,no binding
2,SEARSDGY,no binding
3,SEARSDLA,no binding
4,SEARSDLY,no binding
5,SEARSDSF,no binding
6,SEARSDSV,no binding
7,SEARSDVD,no binding
8,SEARSDVF,no binding
9,SEARSDVV,no binding
10,SEARSDVY,no binding
11,SEARSDWA,no binding
12,SEARSDWD,no binding
13,SEARSDWF,no binding
14,SEARSDWV,no binding
15,SEARSFGV,no binding
16,SEARSSAD,no binding
17,SEARSSAS,no binding
18,SEARSSGF,no binding
19,SEARSSGV,no binding
20,SEARSSGY,no binding
21,SEARSSLA,no binding
22,SEARSSLV,no binding
23,SEARSSSA,no binding

row,Variant,non-specific binding call
1,SEARSSSD,no binding
2,SEARSSSF,no binding
3,SEARSSSV,no binding
4,SEARSSSY,no binding
5,SEARSSWS,no binding
6,SEARSSWV,no binding
7,SEARSYAV,no binding
8,SEARSYLV,no binding
9,SEARSYVV,no binding
10,FEATAAGS,binds
11,FEATASWS,binds
12,VEEAAAGV,no binding
13,SEEASAVY,no binding
14,SEEASDGA,no binding
15,SEEASSSA,no binding
16,VEEASSWA,no binding
17,DEEASSWA,no binding
18,VEEEAFAV,no binding
19,VEEEDYSS,binds
